According to patent US20090291890A1 (published 2009):

B1: FVIIa variant T239S (enzyme)
chain: ANAFLEELRPGSLERECKEEQCSFEEAREIFKDAERTKLFWISYSDGDQCASSPCQNGGSCKDQLQSYICFCLPAFEGRNCETHKDDQLICVNENGGCEQYCSDHTGTKRSCRCHEGYSLLADGVSCTPTVEYPCGKIPILEKRNASKPQGRIVGGKVCPKGECPWQVLLLVNGAQLCGGTLINTIWVVSAAHCFDKIKNWRNLIAVLGEHDLSEHDGDEQSRRVAQVIIPSTYVPGTSNHDIALLRLHQPVVLTDHVVPLCLPERTFSERTLAFVRFSLVSGWGQLLDRGATALELMVLNVPRLMTQDCLQQSRKVGDSPNITEYMFCAGYSDGSKDSCKGDSGGPHATHYRGTWYLTGIVSWGQGCATVGHFGVYTRVSQYIEWLQKLMRSEPRPGVLLRAPFP
B2: FVIIa variant T239Q (enzyme)
chain: ANAFLEELRPGSLERECKEEQCSFEEAREIFKDAERTKLFWISYSDGDQCASSPCQNGGSCKDQLQSYICFCLPAFEGRNCETHKDDQLICVNENGGCEQYCSDHTGTKRSCRCHEGYSLLADGVSCTPTVEYPCGKIPILEKRNASKPQGRIVGGKVCPKGECPWQVLLLVNGAQLCGGTLINTIWVVSAAHCFDKIKNWRNLIAVLGEHDLSEHDGDEQSRRVAQVIIPSTYVPGTQNHDIALLRLHQPVVLTDHVVPLCLPERTFSERTLAFVRFSLVSGWGQLLDRGATALELMVLNVPRLMTQDCLQQSRKVGDSPNITEYMFCAGYSDGSKDSCKGDSGGPHATHYRGTWYLTGIVSWGQGCATVGHFGVYTRVSQYIEWLQKLMRSEPRPGVLLRAPFP
B3: FVIIa variant T239V (enzyme)
chain: ANAFLEELRPGSLERECKEEQCSFEEAREIFKDAERTKLFWISYSDGDQCASSPCQNGGSCKDQLQSYICFCLPAFEGRNCETHKDDQLICVNENGGCEQYCSDHTGTKRSCRCHEGYSLLADGVSCTPTVEYPCGKIPILEKRNASKPQGRIVGGKVCPKGECPWQVLLLVNGAQLCGGTLINTIWVVSAAHCFDKIKNWRNLIAVLGEHDLSEHDGDEQSRRVAQVIIPSTYVPGTVNHDIALLRLHQPVVLTDHVVPLCLPERTFSERTLAFVRFSLVSGWGQLLDRGATALELMVLNVPRLMTQDCLQQSRKVGDSPNITEYMFCAGYSDGSKDSCKGDSGGPHATHYRGTWYLTGIVSWGQGCATVGHFGVYTRVSQYIEWLQKLMRSEPRPGVLLRAPFP
B4: FVIIa variant T239L (enzyme)
chain: ANAFLEELRPGSLERECKEEQCSFEEAREIFKDAERTKLFWISYSDGDQCASSPCQNGGSCKDQLQSYICFCLPAFEGRNCETHKDDQLICVNENGGCEQYCSDHTGTKRSCRCHEGYSLLADGVSCTPTVEYPCGKIPILEKRNASKPQGRIVGGKVCPKGECPWQVLLLVNGAQLCGGTLINTIWVVSAAHCFDKIKNWRNLIAVLGEHDLSEHDGDEQSRRVAQVIIPSTYVPGTLNHDIALLRLHQPVVLTDHVVPLCLPERTFSERTLAFVRFSLVSGWGQLLDRGATALELMVLNVPRLMTQDCLQQSRKVGDSPNITEYMFCAGYSDGSKDSCKGDSGGPHATHYRGTWYLTGIVSWGQGCATVGHFGVYTRVSQYIEWLQKLMRSEPRPGVLLRAPFP
B5: FVIIa variant T239H (enzyme)
chain: ANAFLEELRPGSLERECKEEQCSFEEAREIFKDAERTKLFWISYSDGDQCASSPCQNGGSCKDQLQSYICFCLPAFEGRNCETHKDDQLICVNENGGCEQYCSDHTGTKRSCRCHEGYSLLADGVSCTPTVEYPCGKIPILEKRNASKPQGRIVGGKVCPKGECPWQVLLLVNGAQLCGGTLINTIWVVSAAHCFDKIKNWRNLIAVLGEHDLSEHDGDEQSRRVAQVIIPSTYVPGTHNHDIALLRLHQPVVLTDHVVPLCLPERTFSERTLAFVRFSLVSGWGQLLDRGATALELMVLNVPRLMTQDCLQQSRKVGDSPNITEYMFCAGYSDGSKDSCKGDSGGPHATHYRGTWYLTGIVSWGQGCATVGHFGVYTRVSQYIEWLQKLMRSEPRPGVLLRAPFP
B6: FVIIa variant T239I (enzyme)
chain: ANAFLEELRPGSLERECKEEQCSFEEAREIFKDAERTKLFWISYSDGDQCASSPCQNGGSCKDQLQSYICFCLPAFEGRNCETHKDDQLICVNENGGCEQYCSDHTGTKRSCRCHEGYSLLADGVSCTPTVEYPCGKIPILEKRNASKPQGRIVGGKVCPKGECPWQVLLLVNGAQLCGGTLINTIWVVSAAHCFDKIKNWRNLIAVLGEHDLSEHDGDEQSRRVAQVIIPSTYVPGTINHDIALLRLHQPVVLTDHVVPLCLPERTFSERTLAFVRFSLVSGWGQLLDRGATALELMVLNVPRLMTQDCLQQSRKVGDSPNITEYMFCAGYSDGSKDSCKGDSGGPHATHYRGTWYLTGIVSWGQGCATVGHFGVYTRVSQYIEWLQKLMRSEPRPGVLLRAPFP
B7: FVIIa variant S222A/H257A/M298Q (enzyme)
chain: ANAFLEELRPGSLERECKEEQCSFEEAREIFKDAERTKLFWISYSDGDQCASSPCQNGGSCKDQLQSYICFCLPAFEGRNCETHKDDQLICVNENGGCEQYCSDHTGTKRSCRCHEGYSLLADGVSCTPTVEYPCGKIPILEKRNASKPQGRIVGGKVCPKGECPWQVLLLVNGAQLCGGTLINTIWVVSAAHCFDKIKNWRNLIAVLGEHDLSEHDGDEQARRVAQVIIPSTYVPGTTNHDIALLRLHQPVVLTDAVVPLCLPERTFSERTLAFVRFSLVSGWGQLLDRGATALELQVLNVPRLMTQDCLQQSRKVGDSPNITEYMFCAGYSDGSKDSCKGDSGGPHATHYRGTWYLTGIVSWGQGCATVGHFGVYTRVSQYIEWLQKLMRSEPRPGVLLRAPFP
B8: FVIIa variant S222A/H257A/Q286R/M298Q (enzyme)
chain: ANAFLEELRPGSLERECKEEQCSFEEAREIFKDAERTKLFWISYSDGDQCASSPCQNGGSCKDQLQSYICFCLPAFEGRNCETHKDDQLICVNENGGCEQYCSDHTGTKRSCRCHEGYSLLADGVSCTPTVEYPCGKIPILEKRNASKPQGRIVGGKVCPKGECPWQVLLLVNGAQLCGGTLINTIWVVSAAHCFDKIKNWRNLIAVLGEHDLSEHDGDEQARRVAQVIIPSTYVPGTTNHDIALLRLHQPVVLTDAVVPLCLPERTFSERTLAFVRFSLVSGWGRLLDRGATALELQVLNVPRLMTQDCLQQSRKVGDSPNITEYMFCAGYSDGSKDSCKGDSGGPHATHYRGTWYLTGIVSWGQGCATVGHFGVYTRVSQYIEWLQKLMRSEPRPGVLLRAPFP
B9: FVIIa variant S222A/H257A (enzyme)
chain: ANAFLEELRPGSLERECKEEQCSFEEAREIFKDAERTKLFWISYSDGDQCASSPCQNGGSCKDQLQSYICFCLPAFEGRNCETHKDDQLICVNENGGCEQYCSDHTGTKRSCRCHEGYSLLADGVSCTPTVEYPCGKIPILEKRNASKPQGRIVGGKVCPKGECPWQVLLLVNGAQLCGGTLINTIWVVSAAHCFDKIKNWRNLIAVLGEHDLSEHDGDEQARRVAQVIIPSTYVPGTTNHDIALLRLHQPVVLTDAVVPLCLPERTFSERTLAFVRFSLVSGWGQLLDRGATALELMVLNVPRLMTQDCLQQSRKVGDSPNITEYMFCAGYSDGSKDSCKGDSGGPHATHYRGTWYLTGIVSWGQGCATVGHFGVYTRVSQYIEWLQKLMRSEPRPGVLLRAPFP
B10: FVIIa variant A175S/Q286R/Q366V (enzyme)
chain: ANAFLEELRPGSLERECKEEQCSFEEAREIFKDAERTKLFWISYSDGDQCASSPCQNGGSCKDQLQSYICFCLPAFEGRNCETHKDDQLICVNENGGCEQYCSDHTGTKRSCRCHEGYSLLADGVSCTPTVEYPCGKIPILEKRNASKPQGRIVGGKVCPKGECPWQVLLLVNGSQLCGGTLINTIWVVSAAHCFDKIKNWRNLIAVLGEHDLSEHDGDEQSRRVAQVIIPSTYVPGTTNHDIALLRLHQPVVLTDHVVPLCLPERTFSERTLAFVRFSLVSGWGRLLDRGATALELMVLNVPRLMTQDCLQQSRKVGDSPNITEYMFCAGYSDGSKDSCKGDSGGPHATHYRGTWYLTGIVSWGVGCATVGHFGVYTRVSQYIEWLQKLMRSEPRPGVLLRAPFP
B11: FVIIa variant A175S/S222A/Q366V (enzyme)
chain: ANAFLEELRPGSLERECKEEQCSFEEAREIFKDAERTKLFWISYSDGDQCASSPCQNGGSCKDQLQSYICFCLPAFEGRNCETHKDDQLICVNENGGCEQYCSDHTGTKRSCRCHEGYSLLADGVSCTPTVEYPCGKIPILEKRNASKPQGRIVGGKVCPKGECPWQVLLLVNGSQLCGGTLINTIWVVSAAHCFDKIKNWRNLIAVLGEHDLSEHDGDEQARRVAQVIIPSTYVPGTTNHDIALLRLHQPVVLTDHVVPLCLPERTFSERTLAFVRFSLVSGWGQLLDRGATALELMVLNVPRLMTQDCLQQSRKVGDSPNITEYMFCAGYSDGSKDSCKGDSGGPHATHYRGTWYLTGIVSWGVGCATVGHFGVYTRVSQYIEWLQKLMRSEPRPGVLLRAPFP
B12: FVIIa variant S222A/Q286R/Q366V (enzyme)
chain: ANAFLEELRPGSLERECKEEQCSFEEAREIFKDAERTKLFWISYSDGDQCASSPCQNGGSCKDQLQSYICFCLPAFEGRNCETHKDDQLICVNENGGCEQYCSDHTGTKRSCRCHEGYSLLADGVSCTPTVEYPCGKIPILEKRNASKPQGRIVGGKVCPKGECPWQVLLLVNGAQLCGGTLINTIWVVSAAHCFDKIKNWRNLIAVLGEHDLSEHDGDEQARRVAQVIIPSTYVPGTTNHDIALLRLHQPVVLTDHVVPLCLPERTFSERTLAFVRFSLVSGWGRLLDRGATALELMVLNVPRLMTQDCLQQSRKVGDSPNITEYMFCAGYSDGSKDSCKGDSGGPHATHYRGTWYLTGIVSWGVGCATVGHFGVYTRVSQYIEWLQKLMRSEPRPGVLLRAPFP
B13: FVIIa variant Q286M (enzyme)
chain: ANAFLEELRPGSLERECKEEQCSFEEAREIFKDAERTKLFWISYSDGDQCASSPCQNGGSCKDQLQSYICFCLPAFEGRNCETHKDDQLICVNENGGCEQYCSDHTGTKRSCRCHEGYSLLADGVSCTPTVEYPCGKIPILEKRNASKPQGRIVGGKVCPKGECPWQVLLLVNGAQLCGGTLINTIWVVSAAHCFDKIKNWRNLIAVLGEHDLSEHDGDEQSRRVAQVIIPSTYVPGTTNHDIALLRLHQPVVLTDHVVPLCLPERTFSERTLAFVRFSLVSGWGMLLDRGATALELMVLNVPRLMTQDCLQQSRKVGDSPNITEYMFCAGYSDGSKDSCKGDSGGPHATHYRGTWYLTGIVSWGQGCATVGHFGVYTRVSQYIEWLQKLMRSEPRPGVLLRAPFP
B14: FVIIa variant Q286L (enzyme)
chain: ANAFLEELRPGSLERECKEEQCSFEEAREIFKDAERTKLFWISYSDGDQCASSPCQNGGSCKDQLQSYICFCLPAFEGRNCETHKDDQLICVNENGGCEQYCSDHTGTKRSCRCHEGYSLLADGVSCTPTVEYPCGKIPILEKRNASKPQGRIVGGKVCPKGECPWQVLLLVNGAQLCGGTLINTIWVVSAAHCFDKIKNWRNLIAVLGEHDLSEHDGDEQSRRVAQVIIPSTYVPGTTNHDIALLRLHQPVVLTDHVVPLCLPERTFSERTLAFVRFSLVSGWGLLLDRGATALELMVLNVPRLMTQDCLQQSRKVGDSPNITEYMFCAGYSDGSKDSCKGDSGGPHATHYRGTWYLTGIVSWGQGCATVGHFGVYTRVSQYIEWLQKLMRSEPRPGVLLRAPFP

What follows are binders tested against Factor X (FX) (Homo sapiens (Human)) (UniProt P00742).
Factor X (FX) (Homo sapiens (Human)), sequence (P00742 41-488 limits assumed): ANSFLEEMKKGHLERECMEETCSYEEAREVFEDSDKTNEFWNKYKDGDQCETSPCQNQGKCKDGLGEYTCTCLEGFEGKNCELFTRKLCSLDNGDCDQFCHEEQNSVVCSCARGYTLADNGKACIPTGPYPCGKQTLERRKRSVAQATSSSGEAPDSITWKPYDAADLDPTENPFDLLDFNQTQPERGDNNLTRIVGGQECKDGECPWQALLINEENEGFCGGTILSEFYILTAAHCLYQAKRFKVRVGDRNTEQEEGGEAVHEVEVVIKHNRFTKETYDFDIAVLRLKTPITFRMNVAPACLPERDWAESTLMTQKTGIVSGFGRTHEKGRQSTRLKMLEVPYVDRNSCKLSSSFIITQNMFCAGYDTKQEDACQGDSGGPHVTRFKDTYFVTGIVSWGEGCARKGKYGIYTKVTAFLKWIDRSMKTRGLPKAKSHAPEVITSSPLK
B1 showed a kcat/KM, TF-Dependent Indirect Assay of 1.74e+07 M⁻¹ s⁻¹.
For B2, the kcat/KM, TF-Dependent Indirect Assay was 1.74e+07 M⁻¹ s⁻¹.
With B3 the kcat/KM, TF-Dependent Indirect Assay was 9.57e+07 M⁻¹ s⁻¹.
Binder B4 has a kcat/KM, TF-Dependent Indirect Assay of 3.77e+07 M⁻¹ s⁻¹.
B5 gave a kcat/KM, TF-Dependent Indirect Assay of 9.9e+06 M⁻¹ s⁻¹.
B6 showed a kcat/KM, TF-Dependent Indirect Assay of 3.5e+07 M⁻¹ s⁻¹.
Binder B7 has a kcat/KM, TF-Dependent Indirect Assay of 7.75e+07 M⁻¹ s⁻¹.
B8 showed a kcat/KM, TF-Dependent Indirect Assay of 2e+08 M⁻¹ s⁻¹.
With B9 the kcat/KM, TF-Dependent Indirect Assay was 5.02e+07 M⁻¹ s⁻¹.
For B10, the kcat/KM, TF-Dependent Indirect Assay was 8.08e+07 M⁻¹ s⁻¹.
Work on B11 yielded a kcat/KM, TF-Dependent Indirect Assay of 3.78e+07 M⁻¹ s⁻¹.
For B12, the kcat/KM, TF-Dependent Indirect Assay was 1.27e+08 M⁻¹ s⁻¹.
Binder B13 has a kcat/KM, TF-Dependent Indirect Assay of 5.25e+07 M⁻¹ s⁻¹.
Work on B14 yielded a kcat/KM, TF-Dependent Indirect Assay of 2.02e+07 M⁻¹ s⁻¹.
